Results published in the supplement of paper PMC7877785.
± gives the uncertainty stated by the source.

Experiment: self-splicing fitness, log relative to wild type (ln ratio); higher = more splicing; Tetrahymena group I intron in knt gene, E. coli kanamycin selection, DiMSum; sequences stand for … in CUCUCU…GGAGGGAAAAGUUAUCAGGCAUGCACCUGGUAGCUAGUCUUUAAACCAAUAGAUUGCAUCGGUUUAAAAGGCAAGACCGUCAAAUUGCGGGAAAGGGGUCAACAGCCGUUCAGUACCAAGUCUCAGGGGAAACUUUGAGAUGGCCUUGCAAAGGGUAUGGUAAUAAGCUGACGGACAUGGUCCUAACCACGCAGCCAAGUCCUAAGUCAACAGAUCUUCUGUUGAUAUGGAUGCAGUUCACAGACUAAAUGUCGGUCGGGGAAGAUGUAUUCUUCUCAUAAGAUAUAGUCGGACCUCUCCUUAAUGGGAGCUAGCGGAUGAAGUGAUGCAACACUGGAGCCGCUGGGAACUAAUUUGUAUGCGAAAGUAUAUUGAUUAGUUUUGGAGUACUCGUGGUCG
Method in brief: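 A randomised library covering all eight P1ex-region intron nucleotides was built with the intron in the knt kanamycin-resistance gene on pET-22b(+) and held in E. coli BL21(DE3). Cells were grown overnight at 37°C or 30°C on LB agar, with or without 25 μg/mL kanamycin, plus 100 μg/mL carbenicillin, 50 μM IPTG and 0.2% rhamnose, and pooled colonies were amplicon-sequenced on an Illumina HiSeq 2500. DiMSum fitness is the error-weighted combination of wild-type-normalised replicate fold changes, kanamycin versus none.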

| Sequence | self-splicing fitness (ln) (30 °C) | self-splicing fitness (ln) (37 °C) |
| --- | --- | --- |
| GAGCAGCAAUAUUACGAAAU | -2.45 ± 0.21 | -1.84 ± 0.21 |
| GAGCAGCAAUAUUACGACUC | -2.56 ± 0.19 | 0.053 ± 0.17 |
| GAGCAGCAAUAUUACGAUAA | -2.23 ± 0.29 | -1.76 ± 0.24 |
| GAGCAGCAAUAUUACGAUCC | -2.45 ± 0.19 | -0.494 ± 0.17 |
| GAGCAGCAAUAUUACGAUGU | -3.19 ± 0.15 | -1.37 ± 0.11 |
| GAGCAGCAAUAUUACGCCCG | -1.84 ± 0.25 | -0.798 ± 0.27 |
| GAGCAGCAAUAUUACGCGCC | -3.87 ± 0.28 | -3.17 ± 0.35 |
| GAGCAGCAAUAUUACGCUUC | -2.37 ± 0.28 |  |
| GAGCAGCAAUAUUACGGAAC | -3.14 ± 0.23 | -2.13 ± 0.16 |
| GAGCAGCAAUAUUACGGACC | -0.847 ± 0.11 | -0.206 ± 0.16 |
| GAGCAGCAAUAUUACGGAGG | -3.98 ± 0.21 | -2.3 ± 0.21 |
| GAGCAGCAAUAUUACGGCGG | -2.18 ± 0.11 | -1.77 ± 0.16 |
| GAGCAGCAAUAUUACGGGCA | -1.48 ± 0.17 | -0.674 ± 0.13 |
| GAGCAGCAAUAUUACGGGGA | -2.84 ± 0.21 | -2.05 ± 0.14 |
| GAGCAGCAAUAUUACGGGGG | -3.36 ± 0.26 | -2.46 ± 0.32 |
| GAGCAGCAAUAUUACGGGUA | -3.4 ± 0.16 | -2.36 ± 0.14 |
| GAGCAGCAAUAUUACGGUGA | -2.25 ± 0.12 | -0.646 ± 0.13 |
| GAGCAGCAAUAUUACGUAAG | -2.59 ± 0.17 | -1.45 ± 0.18 |
| GAGCAGCAAUAUUACGUCCG | -0.984 ± 0.3 | -0.968 ± 0.41 |
| GAGCAGCAAUAUUACGUCGA | -1.51 ± 0.12 | -0.741 ± 0.12 |
| GAGCAGCAAUAUUACGUGCA | -1.15 ± 0.071 | -0.471 ± 0.081 |
| GAGGAGCAAUAUUACGAAAC | -2.22 ± 0.34 | -1.87 ± 0.33 |
| GAGGAGCAAUAUUACGAACC | -2.84 ± 0.42 | -1.19 ± 0.38 |
| GAGGAGCAAUAUUACGACAU | -2.069 ± 0.02 | -1.21 ± 0.036 |
| GAGGAGCAAUAUUACGACCA | -2.57 ± 0.4 |  |

| Sequence | self-splicing fitness (ln) (30 °C) | self-splicing fitness (ln) (37 °C) |
| --- | --- | --- |
| GAGGAGCAAUAUUACGAUAA | -2.91 ± 0.26 | -1.35 ± 0.33 |
| GAGGAGCAAUAUUACGAUCU | -0.772 ± 0.12 | -0.217 ± 0.12 |
| GAGGAGCAAUAUUACGCCCA | 0.0821 ± 0.26 | -0.507 ± 0.37 |
| GAGGAGCAAUAUUACGCGCG | -2.81 ± 0.28 | -0.781 ± 0.39 |
| GAGGAGCAAUAUUACGGAUC | -1.61 ± 0.16 | -0.13 ± 0.17 |
| GAGGAGCAAUAUUACGGAUU | -3.61 ± 0.18 | -1.95 ± 0.17 |
| GAGGAGCAAUAUUACGGCGC | -1.62 ± 0.34 | -0.697 ± 0.37 |
| GAGGAGCAAUAUUACGUAAC | -1.59 ± 0.19 | -2.72 ± 0.41 |
| GAGGAGCAAUAUUACGUAAU | -3.87 ± 0.22 | -2.54 ± 0.19 |
| GAGGAGCAAUAUUACGUACG | -2.21 ± 0.19 |  |
| GAGGAGCAAUAUUACGUAGG | -2.42 ± 0.42 | -1.27 ± 0.23 |
| GAGGAGCAAUAUUACGUAUC | -4.63 ± 0.42 | -2.74 ± 0.33 |
| GAGGAGCAAUAUUACGUGCG | -2.06 ± 0.15 | -1.39 ± 0.17 |
| GAGUAGCAAUAUUACGACCC | 0.0573 ± 0.39 |  |
| GAGUAGCAAUAUUACGACCG | -3.1 ± 0.39 | -0.977 ± 0.37 |
| GAGUAGCAAUAUUACGAUCU | -1.59 ± 0.18 | -0.479 ± 0.16 |
| GAGUAGCAAUAUUACGCAAU |  | -2.34 ± 0.31 |
| GAGUAGCAAUAUUACGCAUG | -0.973 ± 0.29 | -0.606 ± 0.47 |
| GAGUAGCAAUAUUACGCCAC | -3.64 ± 0.28 | -0.452 ± 0.21 |
| GAGUAGCAAUAUUACGCCAG | -3.3 ± 0.26 | -2.75 ± 0.48 |
| GAGUAGCAAUAUUACGCCCA | -1.78 ± 0.39 | -1.39 ± 0.24 |
| GAGUAGCAAUAUUACGCCCU | -0.812 ± 0.24 | -0.124 ± 0.23 |
| GAGUAGCAAUAUUACGCCGA | -1.54 ± 0.17 | -0.774 ± 0.13 |
| GAGUAGCAAUAUUACGCCUG | -1.23 ± 0.13 | -0.972 ± 0.15 |
